Assays:
[1] = biological target: recombinant cynomolgus monkey CD3ε/δ heterodimer (cynomolgus monkey) (UniProt Q95LI5); test: BLI (Octet), antigen on anti-Penta His sensor, antibody 50 nM
[2] = biological target: recombinant human CD3ε/δ heterodimer (human) (UniProt P07766); test: as above
[3] = biological target: recombinant cynomolgus monkey CD3ε/δ heterodimer (cynomolgus monkey) (UniProt Q95LI5); test: ELISA, coated CD3ε/δ
[4] = biological target: recombinant human CD3ε/δ heterodimer (human) (UniProt P07766); test: ELISA, coated CD3ε/δ

Chain of recombinant human CD3ε/δ heterodimer (human) (P07766 23-126, stated change not applied, chain 1 of 2): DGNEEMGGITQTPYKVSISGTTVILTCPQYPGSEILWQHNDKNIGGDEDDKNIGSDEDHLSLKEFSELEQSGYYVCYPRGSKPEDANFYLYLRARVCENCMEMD
Chain of recombinant human CD3ε/δ heterodimer (human) (P04234 22-105, stated change not applied, chain 2 of 2, further chain): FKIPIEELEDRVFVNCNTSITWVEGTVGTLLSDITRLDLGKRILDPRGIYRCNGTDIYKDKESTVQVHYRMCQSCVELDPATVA
Chain of recombinant cynomolgus monkey CD3ε/δ heterodimer (cynomolgus monkey) (Q95LI5 22-117, stated change not applied, chain 1 of 2): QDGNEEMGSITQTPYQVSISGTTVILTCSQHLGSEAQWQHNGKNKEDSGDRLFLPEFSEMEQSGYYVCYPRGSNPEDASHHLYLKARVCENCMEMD
Chain of recombinant cynomolgus monkey CD3ε/δ heterodimer (cynomolgus monkey) (Q95LI8 22-105, stated change not applied, chain 2 of 2, further chain): as the sequence (P04234 22-105, stated change not applied, chain 2 of 2, further chain) above, with I5V, N15K, I20V, S32T, D33N, I34N, T64A, S74N, V83L counted along it

| Binder | Kd [1] [nM] | koff [1] [s⁻¹] | kon [1] [M⁻¹ s⁻¹] | Kd [2] [nM] | koff [2] [s⁻¹] | kon [2] [M⁻¹ s⁻¹] | Absorbance (450 nm) [3] | Absorbance (450 nm) [4] |
| --- | --- | --- | --- | --- | --- | --- | --- | --- |
| E16 (antibody, human IgG1, lambda, L234A L235A, V domains shown) VH: EVQLVESGGGLVQPGGSLKLSCAASGFTFNTYAMNWVRQASGKGLEWVARIRSKYNNYATYYADSVKDRFTISRDDSKNTAYLQMNSLKTEDTAVYYCVRHGNFGNSYVSWFAYWGQGTLVTVSS VL: QAVVTQEPSLTVSPGGTVTLTCRSSTGAVTTSNYANWVQQKPGQAPRGLIGGTNKRAPWTPARFSGSLLGDKAALTLSGAQPEDEAEYYCALWYSNLWVFGGGTKLTVLG | 2.19 | 0.000482 | 220000 | 1.76 | 0.000284 | 162000 | 2.74 | 2.4 |
| B07 (antibody, human IgG1, lambda, L234A L235A, V domains shown) VH: EVQLVESGGGLVQPGGSLKLSCAASGFTFNTYAMNWVRQASGKGLEWVGRIRSKYNNYATYYADSVKDRFTISRDDSKNTLYLQMNSLKTEDTAVYYCVRHGNFGNSYVSWFAYWGQGTLVTVSS VL: QAVVTQEPSLTVSPGGTVTLTCRSSTGAVTTSNYANWFQQKPGQAPRGLIGGTNKRAPWTPARFSGSLLGGKAALTLSGAQPEDEAEYYCALWYSNLWVFGGGTKLTVLG | 30.9 | 0.00642 | 208000 | 21.4 | 0.00423 | 198000 | 2.45 | 0.718 |
| G16 (antibody, human IgG1, lambda, L234A L235A, V domains shown) VH: EVQLVESGGGLVQPGGSLKLSCAASGFTFNTYAMNWVRQASGKGLEWVARIRSKYNNYATYYADSVKDRFTISRDDSQSTAYLQMNSLKTEDTAVYYCVRHGNFGNSYVSWFAYWGQGTLVTVSS VL: QAVVTQEPSLTVSPGGTVTLTCRSSTGAVTTSNYANWVQQKPGQAPRGLIGGTNKRAPWTPARFSGSLLGDKAALTLSGAQPEDEAEYYCALWYSNLWVFGGGTKLTVLG | 1.75 | 0.00034 | 195000 | 1.32 | 0.000201 | 153000 | 2.77 | 2.48 |
| A16 (antibody, human IgG1, lambda, L234A L235A, V domains shown) VH: EVQLVESGGGLVQPGGSLKLSCAASGFTFNTYAMNWVRQASGKGLEWVGRIRSKYNNYATYYADSVKDRFTISRDDSKNTAYLQMNSLKTEDTAVYYCVRHGNFGNSYVSWFAYWGQGTLVTVSS VL: QAVVTQEPSLTVSPGGTVTLTCRSSTGAVTTSNYANWVQQKPGQAPRGLIGGTNKRAPWTPARFSGSLLGDKAALTLSGAQPEDEAEYYCALWYSNLWVFGGGTKLTVLG | 0.657 | 0.000243 | 370000 | 0.293 | 8.07e-05 | 275000 | 2.8 | 2.54 |
| F15 (antibody, human IgG1, lambda, L234A L235A, V domains shown) VH: EVQLVESGGGLVQPGGSLKLSCAASGFTFNTYAMNWVRQASGKGLEWVARIRSKYNNYATYYADSVKDRFTISRDDSKNTLYLQMNSLKTEDTAVYYCVRHGNFGNSYVSWFAYWGQGTLVTVSS VL: QAVVTQEPSLTVSPGGTVTLTCRSSTGAVTTSNYANWVQQKPGQAPRGLIGGTNKRAPWTPARFSGSLLGGKAALTLSGAQPEDEAEYYCALWYSNLWVFGGGTKLTVLG | 1.33 | 0.000297 | 224000 | 1.04 | 0.000206 | 197000 | 2.75 | 2.49 |
| B08 (antibody, human IgG1, lambda, L234A L235A, V domains shown) VH: EVQLVESGGGLVQPGGSLKLSCAASGFTFNTYAMNWVRQASGKGLEWVGRIRSKYNNYATYYADSVKDRFTISRDDSKNTLYLQMNSLKTEDTAVYYCVRHGNFGNSYVSWFAYWGQGTLVTVSS VL: QAVVTQEPSLTVSPGGTVTLTCRSSTGAVTTSNYANWFQQKPGQAPRGLIGGTNKRAPWTPARFSGSLLGDKAALTLSGAQPEDEAEYYCALWYSNLWVFGGGTKLTVLG | 26.3 | 0.00525 | 199000 | 27.6 | 0.00407 | 148000 | 2.19 | 0.424 |
| F16 (antibody, human IgG1, lambda, L234A L235A, V domains shown) VH: EVQLVESGGGLVQPGGSLKLSCAASGFTFNTYAMNWVRQASGKGLEWVARIRSKYNNYATYYADSVKDRFTISRDDSKNTLYLQMNSLKTEDTAVYYCVRHGNFGNSYVSWFAYWGQGTLVTVSS VL: QAVVTQEPSLTVSPGGTVTLTCRSSTGAVTTSNYANWVQQKPGQAPRGLIGGTNKRAPWTPARFSGSLLGDKAALTLSGAQPEDEAEYYCALWYSNLWVFGGGTKLTVLG | 1.37 | 0.000253 | 185000 | 0.852 | 0.00012 | 141000 | 2.85 | 2.46 |
| E15 (antibody, human IgG1, lambda, L234A L235A, V domains shown) VH: EVQLVESGGGLVQPGGSLKLSCAASGFTFNTYAMNWVRQASGKGLEWVARIRSKYNNYATYYADSVKDRFTISRDDSKNTAYLQMNSLKTEDTAVYYCVRHGNFGNSYVSWFAYWGQGTLVTVSS VL: QAVVTQEPSLTVSPGGTVTLTCRSSTGAVTTSNYANWVQQKPGQAPRGLIGGTNKRAPWTPARFSGSLLGGKAALTLSGAQPEDEAEYYCALWYSNLWVFGGGTKLTVLG | 1.86 | 0.00054 | 290000 | 1.74 | 0.000392 | 225000 | 2.7 | 2.41 |
| A07 (antibody, human IgG1, lambda, L234A L235A, V domains shown) VH: EVQLVESGGGLVQPGGSLKLSCAASGFTFNTYAMNWVRQASGKGLEWVGRIRSKYNNYATYYADSVKDRFTISRDDSKNTAYLQMNSLKTEDTAVYYCVRHGNFGNSYVSWFAYWGQGTLVTVSS VL: QAVVTQEPSLTVSPGGTVTLTCRSSTGAVTTSNYANWFQQKPGQAPRGLIGGTNKRAPWTPARFSGSLLGGKAALTLSGAQPEDEAEYYCALWYSNLWVFGGGTKLTVLG | 20.5 | 0.00315 | 153000 | 19.5 | 0.00232 | 119000 | 2.55 | 1.31 |

Continued by falling Kd [1], values first:

| Kd [1] [nM] | koff [1] [s⁻¹] | kon [1] [M⁻¹ s⁻¹] | Kd [2] [nM] | koff [2] [s⁻¹] | kon [2] [M⁻¹ s⁻¹] | Absorbance (450 nm) [3] | Absorbance (450 nm) [4] | Binder |
| --- | --- | --- | --- | --- | --- | --- | --- | --- |
| 21.9 | 0.00321 | 147000 | 22.2 | 0.00226 | 102000 | 2.34 | 0.875 | A08 (antibody, human IgG1, lambda, L234A L235A, V domains shown) VH: EVQLVESGGGLVQPGGSLKLSCAASGFTFNTYAMNWVRQASGKGLEWVGRIRSKYNNYATYYADSVKDRFTISRDDSKNTAYLQMNSLKTEDTAVYYCVRHGNFGNSYVSWFAYWGQGTLVTVSS VL: QAVVTQEPSLTVSPGGTVTLTCRSSTGAVTTSNYANWFQQKPGQAPRGLIGGTNKRAPWTPARFSGSLLGDKAALTLSGAQPEDEAEYYCALWYSNLWVFGGGTKLTVLG |
| 1.72 | 0.000461 | 269000 | 1.59 | 0.000332 | 209000 | 2.69 | 2.42 | G15 (antibody, human IgG1, lambda, L234A L235A, V domains shown) VH: EVQLVESGGGLVQPGGSLKLSCAASGFTFNTYAMNWVRQASGKGLEWVARIRSKYNNYATYYADSVKDRFTISRDDSQSTAYLQMNSLKTEDTAVYYCVRHGNFGNSYVSWFAYWGQGTLVTVSS VL: QAVVTQEPSLTVSPGGTVTLTCRSSTGAVTTSNYANWVQQKPGQAPRGLIGGTNKRAPWTPARFSGSLLGGKAALTLSGAQPEDEAEYYCALWYSNLWVFGGGTKLTVLG |
| 1.17 | 0.000269 | 230000 | 0.953 | 0.000189 | 199000 | 2.84 | 2.44 | H15 (antibody, human IgG1, lambda, L234A L235A, V domains shown) VH: EVQLVESGGGLVQPGGSLKLSCAASGFTFNTYAMNWVRQASGKGLEWVARIRSKYNNYATYYADSVKDRFTISRDDSQSTLYLQMNSLKTEDTAVYYCVRHGNFGNSYVSWFAYWGQGTLVTVSS VL: QAVVTQEPSLTVSPGGTVTLTCRSSTGAVTTSNYANWVQQKPGQAPRGLIGGTNKRAPWTPARFSGSLLGGKAALTLSGAQPEDEAEYYCALWYSNLWVFGGGTKLTVLG |
| 1.13 | 0.000206 | 182000 | 0.881 | 0.00012 | 136000 | 2.87 | 2.46 | H16 (antibody, human IgG1, lambda, L234A L235A, V domains shown) VH: EVQLVESGGGLVQPGGSLKLSCAASGFTFNTYAMNWVRQASGKGLEWVARIRSKYNNYATYYADSVKDRFTISRDDSQSTLYLQMNSLKTEDTAVYYCVRHGNFGNSYVSWFAYWGQGTLVTVSS VL: QAVVTQEPSLTVSPGGTVTLTCRSSTGAVTTSNYANWVQQKPGQAPRGLIGGTNKRAPWTPARFSGSLLGDKAALTLSGAQPEDEAEYYCALWYSNLWVFGGGTKLTVLG |
| 0.611 | 0.000217 | 356000 | 0.446 | 0.000107 | 240000 | 2.87 | 2.65 | D16 (antibody, human IgG1, lambda, L234A L235A, V domains shown) VH: EVQLVESGGGLVQPGGSLKLSCAASGFTFNTYAMNWVRQASGKGLEWVGRIRSKYNNYATYYADSVKDRFTISRDDSQSTLYLQMNSLKTEDTAVYYCVRHGNFGNSYVSWFAYWGQGTLVTVSS VL: QAVVTQEPSLTVSPGGTVTLTCRSSTGAVTTSNYANWVQQKPGQAPRGLIGGTNKRAPWTPARFSGSLLGDKAALTLSGAQPEDEAEYYCALWYSNLWVFGGGTKLTVLG |
| 0.364 | 0.000165 | 453000 | 0.296 | 9.58e-05 | 323000 | 2.86 | 2.79 | A15 (antibody, human IgG1, lambda, L234A L235A, V domains shown) VH: EVQLVESGGGLVQPGGSLKLSCAASGFTFNTYAMNWVRQASGKGLEWVGRIRSKYNNYATYYADSVKDRFTISRDDSKNTAYLQMNSLKTEDTAVYYCVRHGNFGNSYVSWFAYWGQGTLVTVSS VL: QAVVTQEPSLTVSPGGTVTLTCRSSTGAVTTSNYANWVQQKPGQAPRGLIGGTNKRAPWTPARFSGSLLGGKAALTLSGAQPEDEAEYYCALWYSNLWVFGGGTKLTVLG |
